{
  "source": "paper PMC11236177",
  "key": {"[1]": {"molecular_target": "recombinant PfPKG quintuple mutant STmut (Plasmodium falciparum) (UniProt Q8I719)"}, "[2]": {"molecular_target": "recombinant wild-type PfPKG (Plasmodium falciparum) (UniProt Q8I719)"}},
  "data": [
    {"substance": "PKAtide (peptide)", "values": [
      {"measurement": "PKAtide concentration at half maximal velocity (Km), ParM-ADP real-time fluorescence kinase assay", "setting": "[1]", "value": 13, "unit": "µM"},
      {"measurement": "PKAtide concentration at half maximal velocity (Km), ParM-ADP real-time fluorescence kinase assay", "setting": "[2]", "value": 10, "unit": "µM"}
    ]}
  ]
}
